In patent US20200347139A1 (INHIBRX BIOSCIENCES, published 2020):

T1: human CLEC12a expressed on transiently transfected HEK 293 cells (human, UniProt Q5QGZ9 1-265)
T1 construct: also called CLL-1; CLL1
T1 sequence: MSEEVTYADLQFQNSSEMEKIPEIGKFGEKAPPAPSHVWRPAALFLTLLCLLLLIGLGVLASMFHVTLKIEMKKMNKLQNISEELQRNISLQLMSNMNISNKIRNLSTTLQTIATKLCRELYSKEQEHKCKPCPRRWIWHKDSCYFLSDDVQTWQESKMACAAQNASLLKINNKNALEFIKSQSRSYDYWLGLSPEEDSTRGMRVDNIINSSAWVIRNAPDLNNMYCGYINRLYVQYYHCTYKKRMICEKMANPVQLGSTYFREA

T2: mFc-CLEC12a-ECD (human)
T2 construct: It was immobilized on anti-mFc capture sensors for BLI; also called CLEC12a antigen
T2 chain: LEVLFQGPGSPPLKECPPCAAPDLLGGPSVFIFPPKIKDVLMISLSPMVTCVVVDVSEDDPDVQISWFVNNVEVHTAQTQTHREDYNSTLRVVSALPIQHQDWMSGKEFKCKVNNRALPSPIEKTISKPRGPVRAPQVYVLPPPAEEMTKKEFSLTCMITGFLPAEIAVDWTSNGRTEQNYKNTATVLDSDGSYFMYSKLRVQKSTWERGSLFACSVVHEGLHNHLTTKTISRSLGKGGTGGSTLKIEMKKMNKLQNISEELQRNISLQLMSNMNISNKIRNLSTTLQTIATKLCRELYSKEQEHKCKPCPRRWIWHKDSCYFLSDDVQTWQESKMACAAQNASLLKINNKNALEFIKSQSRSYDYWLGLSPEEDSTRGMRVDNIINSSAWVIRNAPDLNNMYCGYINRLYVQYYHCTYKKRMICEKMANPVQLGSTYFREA


What was measured:
[1] = target: T1, human CLEC12a expressed on transiently …; test: flow cytometry on HEK 293 cells transfected with human CLEC12a; apparent Kd, one-site fit
Procedure: (§1) Binding of sdAbs to human CLEC12a was assessed by flow cytometry. […] HEK 293 cells were transiently transfected with a plasmid encoding CLEC12a (UniProt Accession No. Q5QGZ9.3; SEQ ID NO: 1) and used as the positive cell line, and untransfected HEK 293 cells were used as CLEC12a-negative cells. Each cell type was plated at 30,000 cells/well in FACS buffer (PBS 1% BSA, 0.1% NaN₃ pH 7.4) on a 96-well round-bottom plate. The sdAbs were diluted in FACS buffer in a 3-fold, 11 point serial dilution. The sdAb dilutions were added to the plated cells, and assay plates were incubated for 30 minutes at 4° C. After washing twice in 150 μL of FACS buffer, cells in each well were resuspended in 100 μL of 1:2000 Alexa Fluor 647-conjugated Anti-Human IgG secondary diluted in FACS buffer and incubated at 4° C. for 30 minutes. The cells were washed twice more, then bound antibody was detected by flow cytometry.
(§2) Flow cytometric analysis was performed on an Intellicyte iQue Plus and fluorescence was plotted as median fluorescence intensity. The apparent affinity (Kd, nM) was determined using one site binding non-linear regression in PRISM graph software.

mFc-CLEC12a-ECD [2] = target: T2, mFc-CLEC12a-ECD; test: BLI epitope binning; mFc-CLEC12a-ECD on anti-mFc sensors, 100 nM sdAb
Procedure: (§3) The epitopes of single domain antibodies (sdAbs) that comprise VHH domains that bind CLEC12a were compared using Bio-Layer Interferometry. 7 μg/mL of mFc-CLEC12a-ECD (SEQ ID NO: 87) was immobilized on anti-mFc coated capture sensors. 100 nM of one sdAb was then loaded onto the CLEC12a antigen and allowed to come to equilibrium. The sensors were then transferred into 100 nM of a second sdAb.

[3] = target: T1, human CLEC12a expressed on transiently …; test: flow cytometry on HEK 293 cells transiently transfected with human CLEC12a, Alexa Fluor 647 anti-human IgG secondary, median fluorescence
Procedure: as §1, §2

mFc-CLEC12a-ECD [4] = target: T2, mFc-CLEC12a-ECD; test: BLI, mFc-CLEC12a-ECD on anti-mFc sensors first loaded with 100 nM hzMB11v13, then 100 nM second sdAb
Procedure: as §3

Kd [1] [pM] | binding result (mFc-CLEC12a-ECD [2]) | EC50 (read off the curve) [3] [pM] | binding result (mFc-CLEC12a-ECD [4]) | Binder
50 | – | – | – | ME06 sdAb (VHH ME06 fused to human IgG1 xELL Fc) (Fc fusion, Camelid parental VHH; No linker is stated; also called ME06-IgG1) QVQLVQSGGGLVQAGGSLRLSCVASGFTFDDYAIGWFRQAPGKEREGVSCISNSDGSTYYADSVKGRFTISSDNAKNTVYLHVNSLNPEDTAVYYCALREGLPLLLDSLWRQPVEYDYWGQGTQVTVDKTHTCPPCPAPGGPSVFLFPPKPKDTLMISRTPEVTCVVVDVSHEDPEVKFNWYVDGVEVHNAKTKPREEQYNSTYRVVSVLTVLHQDWLNGKEYKCKVSNKALPAPIEKTISKAKGQPREPQVYTLPPSRDELTKNQVSLTCLVKGFYPSDIAVEWESNGQPENNYKTTPPVLDSDGSFFLYSKLTVDKSRWQQGNVFSCSVMHEALHNHYTQKSLSLSPGK
100 | – | – | – | MH07 sdAb (VHH MH07 fused to human IgG1 xELL Fc) (Fc fusion, Camelid parental VHH; No linker is stated; also called MH07-IgG1) QVQLVQSGGGLVQPGGSLRLSCVASGLLFSIYDMNWYRQAPGKEREWIAGITNNGYSTAYTDSVQGRFTISRDNAKNTVYLQMNSLKPEDTAVYYCHTDEWGREYWGQGTQVTVDKTHTCPPCPAPGGPSVFLFPPKPKDTLMISRTPEVTCVVVDVSHEDPEVKFNWYVDGVEVHNAKTKPREEQYNSTYRVVSVLTVLHQDWLNGKEYKCKVSNKALPAPIEKTISKAKGQPREPQVYTLPPSRDELTKNQVSLTCLVKGFYPSDIAVEWESNGQPENNYKTTPPVLDSDGSFFLYSKLTVDKSRWQQGNVFSCSVMHEALHNHYTQKSLSLSPGK
280 | binds | – | – | hzMH07v3 sdAb (VHH hzMH07v3 fused to human IgG1 xELL Fc) (Fc fusion, Humanized version of MH07; No linker is stated; also called hzMH07v3-IgG1; haMH07v3) EVQLVESGGGEVQPGGSLRLSCAASGLLFSIYDMNWYRQAPGKEREWVAGITNNGYSTAYAESVKGRFTISRDNAKNTVYLQMSSLRAEDTAVYYCHTDEWGREYWGQGTLVTVDKTHTCPPCPAPGGPSVFLFPPKPKDTLMISRTPEVTCVVVDVSHEDPEVKFNWYVDGVEVHNAKTKPREEQYNSTYRVVSVLTVLHQDWLNGKEYKCKVSNKALPAPIEKTISKAKGQPREPQVYTLPPSRDELTKNQVSLTCLVKGFYPSDIAVEWESNGQPENNYKTTPPVLDSDGSFFLYSKLTVDKSRWQQGNVFSCSVMHEALHNHYTQKSLSLSPGK
1580 | – | 1000 to 2000 | – | MC06 sdAb (VHH MC06 fused to human IgG1 xELL Fc) (Fc fusion, Camelid parental VHH; No linker is stated; also called MC06-IgG1) QVQLQESGGGLVQPGGSLRLSCAASGFTFSVYDMNWYRQTPGKEREWVAGISNNGFSTAYAGSVKGRFTISRDNAENTVYLQMNSLKSEDTAVYYCNLDVHGRVGAQGDYWGQGTQVTVDKTHTCPPCPAPGGPSVFLFPPKPKDTLMISRTPEVTCVVVDVSHEDPEVKFNWYVDGVEVHNAKTKPREEQYNSTYRVVSVLTVLHQDWLNGKEYKCKVSNKALPAPIEKTISKAKGQPREPQVYTLPPSRDELTKNQVSLTCLVKGFYPSDIAVEWESNGQPENNYKTTPPVLDSDGSFFLYSKLTVDKSRWQQGNVFSCSVMHEALHNHYTQKSLSLSPGK
14000 | binds | ~10000 | – | hzMC06v2 sdAb (VHH hzMC06v2 fused to human IgG1 xELL Fc) (Fc fusion, Humanized version of MC06; No linker is stated; also called hzMC06v2-IgG1) EVQLVESGGGEVQPGGSLRLSCAASGFTFSVYDMNWYRQAPGKEREWVSGISNNGFSTAYAESVKGRFTISRDNAKNTLYLQMSSLRAEDTAVYYCNLDVHGRVGAQGDYWGQGTLVTVDKTHTCPPCPAPGGPSVFLFPPKPKDTLMISRTPEVTCVVVDVSHEDPEVKFNWYVDGVEVHNAKTKPREEQYNSTYRVVSVLTVLHQDWLNGKEYKCKVSNKALPAPIEKTISKAKGQPREPQVYTLPPSRDELTKNQVSLTCLVKGFYPSDIAVEWESNGQPENNYKTTPPVLDSDGSFFLYSKLTVDKSRWQQGNVFSCSVMHEALHNHYTQKSLSLSPGK
60 | – | – | binds | hzME06v16 sdAb (VHH hzME06v16 fused to human IgG1 xELL Fc) (Fc fusion, Humanized version of ME06; No linker is stated; also called hzME06v16-IgG1) EVQLVESGGGEVQPGGSLRLSCAASGFTFDDYAIGWFRQAPGKEREGVSTISSSDGSTYYAESVKGRFTISRDNAKNTVYLQMSSLRAEDTAVYYCALREGLPLLLDTLWRQPVEYDYWGQGTQVTVDKTHTCPPCPAPGGPSVFLFPPKPKDTLMISRTPEVTCVVVDVSHEDPEVKFNWYVDGVEVHNAKTKPREEQYNSTYRVVSVLTVLHQDWLNGKEYKCKVSNKALPAPIEKTISKAKGQPREPQVYTLPPSRDELTKNQVSLTCLVKGFYPSDIAVEWESNGQPENNYKTTPPVLDSDGSFFLYSKLTVDKSRWQQGNVFSCSVMHEALHNHYTQKSLSLSPGK
1200 | – | ~1000 | – | ME02 sdAb (VHH ME02 fused to human IgG1 xELL Fc) (Fc fusion, Camelid parental VHH; No linker is stated; also called ME02-IgG1) QVQLQQSGGGLVQVGGSQRLSCAASGRTFEYDDMVWFRQAPGKEREEVAGISWSGGSIYYADSVKGRFSISRDNAKNTVYLEMNRLKPEDTAVYYCNVGSYWGQGTQVTVDKTHTCPPCPAPGGPSVFLFPPKPKDTLMISRTPEVTCVVVDVSHEDPEVKFNWYVDGVEVHNAKTKPREEQYNSTYRVVSVLTVLHQDWLNGKEYKCKVSNKALPAPIEKTISKAKGQPREPQVYTLPPSRDELTKNQVSLTCLVKGFYPSDIAVEWESNGQPENNYKTTPPVLDSDGSFFLYSKLTVDKSRWQQGNVFSCSVMHEALHNHYTQKSLSLSPGK
870 | – | ~800 | binds | hzME02v4 sdAb (VHH hzME02v4 fused to human IgG1 xELL Fc) (Fc fusion, Humanized version of ME02; No linker is stated; also called hzME02v4-IgG1) EVQLVESGGGEVQPGGSLRLSCAASGRTFEYDDMVWFRQAPGKEREEVAGISWSGGSIYYAESVKGRFSISRDNAKNTVYLEMNRLKPEDTAVYYCNVGSYWGQGTLVTVDKTHTCPPCPAPGGPSVFLFPPKPKDTLMISRTPEVTCVVVDVSHEDPEVKFNWYVDGVEVHNAKTKPREEQYNSTYRVVSVLTVLHQDWLNGKEYKCKVSNKALPAPIEKTISKAKGQPREPQVYTLPPSRDELTKNQVSLTCLVKGFYPSDIAVEWESNGQPENNYKTTPPVLDSDGSFFLYSKLTVDKSRWQQGNVFSCSVMHEALHNHYTQKSLSLSPGK
58600 | – | ~50000 | – | MB11 sdAb (VHH MB11 fused to human IgG1 xELL Fc) (Fc fusion, Camelid parental VHH; No linker between VHH and Fc is stated; Fc dimers are described only in general terms; also called MB11-IgG1) QVQLQQSGGGLVQPGGSLRLSCVASGFLFSIYDMNWYRQAPGKEREWIAGITNNGYSTAYTDSVQGRFTISRDNAKNTIYLQMTSLKPEDTAVYYCHADLTKCYDGEYAWGQGTQVTVDKTHTCPPCPAPGGPSVFLFPPKPKDTLMISRTPEVTCVVVDVSHEDPEVKFNWYVDGVEVHNAKTKPREEQYNSTYRVVSVLTVLHQDWLNGKEYKCKVSNKALPAPIEKTISKAKGQPREPQVYTLPPSRDELTKNQVSLTCLVKGFYPSDIAVEWESNGQPENNYKTTPPVLDSDGSFFLYSKLTVDKSRWQQGNVFSCSVMHEALHNHYTQKSLSLSPGK
370 | – | – | – | MC02 sdAb (VHH MC02 fused to human IgG1 xELL Fc) (Fc fusion, Camelid parental VHH; No linker is stated; also called MC02-IgG1) QVQLVQSGGGLAQPGGSLRLSCTASGFTFRINDMGWYRQAPGKECEMVAGISNNGFSTAYADSVKGRFTISRDNAKNTVSLQMDSLKSEDTAVYYCHRTDDGAAHACSRGQGTQVTVDKTHTCPPCPAPGGPSVFLFPPKPKDTLMISRTPEVTCVVVDVSHEDPEVKFNWYVDGVEVHNAKTKPREEQYNSTYRVVSVLTVLHQDWLNGKEYKCKVSNKALPAPIEKTISKAKGQPREPQVYTLPPSRDELTKNQVSLTCLVKGFYPSDIAVEWESNGQPENNYKTTPPVLDSDGSFFLYSKLTVDKSRWQQGNVFSCSVMHEALHNHYTQKSLSLSPGK
350 | binds | – | – | hzMC02v6 sdAb (VHH hzMC02v6 fused to human IgG1 xELL Fc) (Fc fusion, Humanized version of MC02; No linker is stated; also called hzMC02v6-IgG1) EVQLVESGGGEVQPGGSLRLSCAASGFTFRINDMGWYRQAPGKECEMVAGISNNGFSTAYAESVKGRFTISRDNAKNTVYLQMSSLRAEDTAVYYCHRTDEGAAHACSRGQGTLVTVDKTHTCPPCPAPGGPSVFLFPPKPKDTLMISRTPEVTCVVVDVSHEDPEVKFNWYVDGVEVHNAKTKPREEQYNSTYRVVSVLTVLHQDWLNGKEYKCKVSNKALPAPIEKTISKAKGQPREPQVYTLPPSRDELTKNQVSLTCLVKGFYPSDIAVEWESNGQPENNYKTTPPVLDSDGSFFLYSKLTVDKSRWQQGNVFSCSVMHEALHNHYTQKSLSLSPGK
